The text below walks through data of patent US8642559.

For data set [1], the target named is GST fusion protein with mGluR1α Asn889 to Leu1058 fused to the C-terminus of GST (UniProt P23385).
The target in data set [2] is GST fusion protein with mGluR1α Ile812 to Ser943 attached to the C-terminus of GST (UniProt P23385).
Data set [3] concerns the target myc-mGluR1α (mGluR1α tagged with a c-myc epitope inserted in frame after Ala30) (UniProt P23385).
Data set [4] deals with spectrin in brain membranes.

myc-mGluR1α (mGluR1α tagged with a c-myc epitope inserted in frame after Ala30), sequence (P23385 other isoform, or with tags, fused parts or gaps): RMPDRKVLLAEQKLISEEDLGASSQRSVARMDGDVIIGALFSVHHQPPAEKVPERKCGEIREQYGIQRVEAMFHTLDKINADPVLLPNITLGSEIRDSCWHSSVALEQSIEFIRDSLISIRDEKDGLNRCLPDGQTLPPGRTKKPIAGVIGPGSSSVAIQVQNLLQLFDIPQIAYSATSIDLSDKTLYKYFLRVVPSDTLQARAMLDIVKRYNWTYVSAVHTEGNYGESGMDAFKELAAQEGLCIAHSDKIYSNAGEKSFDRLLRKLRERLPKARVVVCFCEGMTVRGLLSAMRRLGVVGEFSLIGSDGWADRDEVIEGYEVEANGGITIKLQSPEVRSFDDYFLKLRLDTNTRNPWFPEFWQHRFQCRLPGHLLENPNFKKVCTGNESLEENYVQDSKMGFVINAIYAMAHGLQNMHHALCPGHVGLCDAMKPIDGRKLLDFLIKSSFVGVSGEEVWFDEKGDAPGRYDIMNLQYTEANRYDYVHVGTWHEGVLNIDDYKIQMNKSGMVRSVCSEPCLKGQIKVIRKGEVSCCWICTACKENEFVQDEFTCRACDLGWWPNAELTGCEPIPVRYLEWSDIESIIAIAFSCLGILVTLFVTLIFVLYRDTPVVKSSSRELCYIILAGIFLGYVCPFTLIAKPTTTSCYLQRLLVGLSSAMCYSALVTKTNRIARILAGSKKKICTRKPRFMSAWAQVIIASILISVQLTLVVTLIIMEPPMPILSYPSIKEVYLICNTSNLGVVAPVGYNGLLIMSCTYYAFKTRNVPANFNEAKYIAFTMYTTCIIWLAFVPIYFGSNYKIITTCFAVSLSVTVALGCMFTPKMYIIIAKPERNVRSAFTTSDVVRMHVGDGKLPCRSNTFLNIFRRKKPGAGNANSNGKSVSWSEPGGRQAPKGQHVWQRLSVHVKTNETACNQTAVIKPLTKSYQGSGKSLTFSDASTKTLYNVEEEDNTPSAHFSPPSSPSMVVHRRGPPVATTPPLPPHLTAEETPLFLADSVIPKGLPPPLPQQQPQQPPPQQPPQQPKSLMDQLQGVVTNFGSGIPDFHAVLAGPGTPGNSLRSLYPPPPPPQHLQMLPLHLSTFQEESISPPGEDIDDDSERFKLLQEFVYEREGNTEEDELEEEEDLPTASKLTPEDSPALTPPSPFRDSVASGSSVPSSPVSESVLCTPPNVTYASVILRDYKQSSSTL
GST fusion protein with mGluR1α Asn889 to Leu1058 fused to the C-terminus of GST, sequence (P23385 889-1058): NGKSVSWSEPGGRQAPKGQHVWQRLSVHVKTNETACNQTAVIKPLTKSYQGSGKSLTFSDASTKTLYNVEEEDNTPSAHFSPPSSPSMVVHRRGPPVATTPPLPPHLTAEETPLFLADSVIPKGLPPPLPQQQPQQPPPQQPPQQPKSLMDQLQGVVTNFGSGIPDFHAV
GST fusion protein with mGluR1α Ile812 to Ser943 attached to the C-terminus of GST, sequence (P23385 812-943): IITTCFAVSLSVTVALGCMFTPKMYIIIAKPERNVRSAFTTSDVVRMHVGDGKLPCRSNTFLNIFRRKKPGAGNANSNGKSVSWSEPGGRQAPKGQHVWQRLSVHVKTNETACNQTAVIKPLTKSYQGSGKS

For µ-calpain, the “digestion of the GST fusion protein with calpain, Edman sequencing” value in data set [1] is listed as “after digestion with calpain, this fusion protein generated a 10 kD fragment”. In data set [2], the “digestion of the purified GST fusion protein with calpain in the presence of 2 mM CaCl2” value is “The GST-mGluR1α fusion protein became about 2 kD smaller after digestion”. For the same substance, the “cleavage of immunoprecipitated myc-mGluR1α by µ-calpain (30 min), silver staining and Western blots” value in data set [3] is reported as “the density of the 145 kD band that represents the whole-length mGluR1α decreased dose-dependently with calpain treatment”. Besides, the “truncation in brain membranes treated with purified calpain and calcium” value in data set [4] is “truncation of both mGluR1 and spectrin was observed”.
